Measurements taken from the domain aggregation screens of Martell et al. (2025).

Test: soluble fraction after stress (log2 fold change); higher = more stays soluble; pooled small domains, quantitative proteomics
Conditions: stress: pH 4
How it was run: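 High-throughput quantitative proteomics was run on pooled custom libraries of small protein domains following pH 4 stress. Fold changes are on a log2 scale; higher values mean more of a domain remained soluble. The fold change in soluble amount is taken as a measure of aggregation propensity.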

Sequence | soluble fraction (log2)
HMKTMSLSSIEKAIYKTKYENEPTSQRLSRIESSVFGTNFSQDSESERIARISSAINAQKSAK | 0.22
HMKTMTTIRKGSRGDTVATLQRKLNLIADGIFGPITDEAVRDFQKSHGLAVDGIVGPKTWAALGVGS | 0.354
HMKTNQINVSGLSKEKNFEVLESLDVYKFYNLFFLNKIKIDQLINSYNHIDNYSVFKKYPSSLIVKLSE | -0.0619
HMKTPETSEYVVQAGDSLRRILTERYGAKEQDLPYLYRQFRLLNPKVSSLDNIHAGTKVRIPLVASVL | -0.0112
HMKTPRKVFTVLIRNTEYDVYDIDGKEHQGYNDTPKTWWLYHSERLPEGMIPPIDSDSWKPYSVGT | -2.19
HMKTTKESLLEYIQREVFTDSIHKEGLSTNEIADAFQIQRSNVSSLLNTLVKEGKLEKTTGRPVLYRIPEK | 0.0777
HMKVEFDAMDKRILELMAKEYDTVLMARHLPLTPIVIDVRKKRIREVLNLPDATDAEIVIEAKEKDII | -1.47
HMKVEIVRVVKDIHIGDEITKDMVRTVEVGGYNLPDGVVKDTATVIGRFASADMVPGDYIISSKIADAP | 0.0866
HMKVELSENEKIIYDLLSNQEVLLSEIKDKAELSNKAWDKSTKSLRKLGLVIVEKKDDNIYISKS | 0.368
HMKVGEIIKAKREELKIPLVNFAKELDISQGYLSQIENGIKTNPNLDIILKIIHRLDIDLAMLL | -1.02
HMKVIAEESYRILVDAIEKLPPQMKSIMQLALEGKSNPEIAETLNISGETVHSQKKIAYRKLRVYLKD | -0.144
HMKVIETKYNTYVVKSGDTLYSVAKKYGISVTELKEINDLSNNTLSIGQKLLVPATTIIIDE | -0.525
HMKVNMIIVMKPGARETDIQEVSNVLKSAGLGVHISKGTERTIIGVIGDKRLLNGIPLDLMHGVDKLVPIM | -0.0619
HMKVNQFEVEGNQRYSTEEIAKASGVSKGDNLFLVNKTETARKLLDELAYVRSVNIKRKLPDTLVITVAE | 0.331
HMKVPDVQYMNKDSAIEALTANELKYTIVEAENENVAAGVVISQSVERDSQVAPGTSVELVVSTG | -0.741
HMKVQEMTANSFLTQWEAGNVKTLDILPEGIIKGELNDGTKFQLYYSSAAGLIDDVKKNPEKFANTTVSEK | -0.238
HMKVQEVDYGTFLTMVDEGKVNQVDIENSKQITFNTKGDKNKVYITGQVNDPELVNRLYKAGVEFSQEIP | -0.674
HMKVSNWYFNGAPSATTPPTSQWTTEKDKKAHIGDTFTSLDKSPSPNAGKSWRYTPSYTWEEIV | 0.0965
HMKVSRTAVKLHHANAVEVAKKLQPLFVVGDVQIEPVKDAGIILLKGPASTLADLRESIVQMDHTA | -0.309
HMKVTRWEDTGMKPAEAQEWQHYDFKPQEAMNWRDAGFVPLVARTWSDKGFDASEAQAWRDSVRNS | 0.123
HMKVVEKHIVPQIQNPIRLQEYASSIFKTITTRSGIKKAIKKQLILLNRKPANTGDWIKEGQLLELLAEE | -0.569
HMKVYIKDISDLSDKLKSLLIENDIDDSNKLFEVEDQVLLEIKGLGSKTIDKIKDIVTEYLKKNN | -0.38
HMKVYPIMEAIANNNIELVKLLLEYHADLNIKDSNGNTPLALAKETGAKEVEDLLLQWMKQHT | -0.834

Sequence | soluble fraction (log2)
HMKWGDTPTVEVPNLIGMKKKDLQTQLVDLKLDISGDGEKVIKQSPEAGAKVKEGSKIRIYFG | -0.0575
HMKWYDSDKGFGFLSQEEGEDVYVRSSALPAGVEGLKAGQRVEFGIASGRRGPQALSL | -0.71
HMKYKKYKLLKDLPTFKAGQLAYISKTGNLIAGTPENQKTTETGLIIMIYHETTLKKFPNILTEWFEEIE | -1.17
HMKYNGDRPVFNDDVAWAKWMLENPAKITSHDKENLSSMLKKPEVVMLFEAEDLSVPDLRTLAKE | -0.349
HMKYNYEAQQSDELSLVKGSRIHVLEKSSDGWWKGEIDNVVGWFPS | -0.102
HMKYRLLGENLQTIRKARGMKQQELADQIGINMQSLSKIERGLNYPTFETLEKIMNALGITPNELLSG | -0.798
HMKYRPGDVVTLRVARMGEMGAFLDAGTGNTNDDILLHKMQQTEEIKAGQDVKVYLYLDPNRRLTASMKL | -0.0269
HMKYSNDEVERDLYVRGVIYQIGDLVENKLDGTSGEVVRRGPNYVQYTDGENFYKAFLSALQEQK | -1.04
HMKYSYAELTKLQEQIAQDRNAPLTVPNALGIGLDERNNVIEITVNIADEAAAKAYYLQKYGDRISLKTTD | -0.243
HMKYTEEIFNILSRGGFISANSVSSTVKRYYDALEEDFTEYYDYYKGIGFYLEAGNGYYLFTR | -0.064
HMKYTVKSPLPGVIMSVLVKVGDTVKASDTVISLEAMKMENAIHAGRDGKVTSIDVNVGDSVLEGHTLVTI | -1.04
HMLAAGTPLTVVTESSNLNIRQEPSTEAAVVGKAAKGEIVTLVEQTSGEWWKVSTKDGEEGYAYSRYL | -0.809
HMLAAGTSLTVDTESSNLNIRQEPSTEGVILGKAAKGEVVTLVEQSSDEWWKIKTKDGEEGYAYARYLR | 0.0235
HMLADRANMAPAALRQIMTAIDGGNVTPKQIESATGMAHATVARALRKMLDDGLIANDGKGRYTVLT | 0.238
HMLADTNIHTIALKHRLANEVVEQVRPFLPETATIRAYDNMLILKSDRATLANVEQLIKKLDT | 0.228
HMLALVREQIERNVSNPTDEDIRKIRHDVMEVITRAGADAATVDIAIEIDSQKNILRAIATGATEL | -1
HMLAMHVVESVGGAEQFTKLQNFAKTQNADYQKMWNDTMNSGNVLAIKTMLSGIQSDMIAVQ | -0.466
HMLAQDVIVKQDGGTILSKVLEIGTQEIAYKKWNSQDGPVYKIAKDQVLSVNYQNGEVDRFA | -0.233
HMLAQISDEGAIGAVVARVLDAHPNEVARYHAGEEKVAKFLMGAAMRELRGKGDPAVVQRLLSEGLDARRV | 0.294
HMLARPTANELVKEMQRRAKEQRTELPPDAARDLLERSGQDQFLLGNEVDKLAALSGYTTITREMVAQAGT | 0.0328
HMLAVPADFAEKLQSLRSQLASDDLDASDAFGRLQPFIKALYPAQLEALRKAVDDFDFVEATRLIDQLPQ | -0.954
HMLAYQRTYEKILEDLRNDVYPVNSLLPPEPKLEEIYHVSRTTVRRAIAQLADEGYVKVKQGYGTVVLKN | 0.22
HMLDEPPVSQTLTTYDREHMALYLRLLDSARDGADWREAVQILFGLDPTRDPLRSRHVHDTHLARARWM | -0.452

Sequence | soluble fraction (log2)
HMLDFGQEDSEAVSEIILVLGRYWMDFSHKKYPEAEGSALRHKGISHIFTVLKPYLTSATAQLIEQRLQQ | -0.398
HMLDIQKKGENIAYIEGAGDVIPESLKQIGYHVVTIAPKDINAETLSRFDAVVVGIRAYNTVEDL | -0.241
HMLDKIRTYIDNSFTGVNETKKVKELKDELFENLKEKYNDQIQDGKTEQEAYNSVISGIGDLSELIESVK | -0.0804
HMLDKKKHLEQGRKIIEDQLAKYKIQPSFDTLKKLSAYYGLNNKEQLYAQVGMGFLELENLDEILQ | -0.347
HMLDLPVRTINGRQYYYYEVRNRETVYGLSKRLGVTREEIVRYNPSMADGLKRGAILYFPVDEFSDRI | -0.0139
HMLDLSDFEVVRDLYLSEQIWNVGDLIIARSKKDDTYKAWEIIRKGTNYVTGIDESHKVEKIWLHDILI | -1.1
HMLDSPHDDLNRKIVQMLQNDGRLPYKDIAEVLSVSEGTVRNRVQRMRDAGMLNIVALIDPMAI | -0.498
HMLDTPLTARELDVLYLMRQRMSAKEIAKQLGIATMTVNRHAANLYRKLGVNTRWDAVYRAEEVGILPP | -0.592
HMLDVNLIFSRPGFSLSAAFTLHAGGITVLRGDSGSGKTTLADLLSGAIAPQKGRILSDGDIWFDAASGIN | -0.163
HMLDYITLSPQELGKLLSAGNGDAAMVYLYMKATGDVTLKQAETQLGMTNQNLAWAESLLKRLGLMD | -0.501
HMLDYKSALQELLQAQRRSRPRYEVISTEGPDHERVFEVAVWLDNEELGRGKGRSKREAEHQAAQAALTQL | -0.626
HMLDYQLQVFKDTLEANRKHRGQKIVFIHGKGEGVLRRALIHALNYQYKKFTYQDASFREYGYGATQVTI | -0.0148
HMLEEIDYPEEQLQLLFAWSRDHVQSTPPGLPVVDDHVWHILVRGYGATDQRTEAFALLASYAGFP | -0.722
HMLEIDPPVDEISVSRKAFYEAAGYKVNPYTHIPPRYRKEFEEHSFVVMSWPRELPEETYRKFDRYLRDV | -0.253
HMLEIRGFTVLLSDRGIVGIIEEIIQNPGQDLLRILSPEKREILVPLHSDLITGINKKKKTITMNLPDGL | -0.775
HMLELTGEEEFVIRTLTRQGDLHINALVVETDIPINRMISLLFELEMKGVVKALVGGVYHLLG | -1.58
HMLELTVSDKMARLMAWRNRRRVNLSDQELHRIAAAPKQSPESILKMLPGFLQDSVPEIWAELTGGRP | -0.0678
HMLENSLDHIEGIGPKTKDTLLTYFKSVSKIKSANPSILAELIGAAKTKILLAAFEKEKTTS | 0.17
HMLENYEGFKQKILKLTGIDLSSYKERQMRRRIDSLIHRNNYDDYDEYFKALTQNSNLYDEFINYLTI | -0.424
HMLEQEDMYGYQMIETLRERSEHSFDLKAGTLYPLLHALEQKGLITARDEASAAGRPRRYYHLTDAG | -1.05
HMLERPLFTPEQYGRFRGKEARIRLSNPVEGRKTLTGSIVEATEERIVVFVEEEEREVTVPFQWIKSGNL | -0.523
HMLESVMHSRIAEIISREGTAPAHMSMQEKIRVVHKLDADGILMMKGAVAEIADQLSVSVPTIYRYLNKPQ | ≥ 0.43
HMLETILQIGKDGVGENLVKQVNDALEARELIKGRVLDNNLELDARTAAQILAKATRSEVVQVIGTKFV | 0.0332
